A word on the stoichiometry N: it is a count of units in the complex or per binding partner.

Data set [1] deals with disulfide-linked NT5B dimer (human) (UniProt Q9HC84). As to the kind of experiment: AUC; sedimentation velocity, 35,000 rpm, 20 °C; NT5B in 5 mM CaCl2 at pH 5.
For data set [2] the target is unchanged. Briefly: AUC; sedimentation velocity, 35,000 rpm, 20 °C; NT5B in 5 mM CaCl2 at pH 6; reversed by 10 mM EGTA and pH 7.4.
Data set [3] has the same target. Briefly: SEC-MALLS; NT5B in 5 mM CaCl2 at pH 6, Superose 6 10/300, 25 mM Hepes, 150 mM NaCl; recovery in the dimer peak compared with 5 mM EGTA at pH 6.
Data set [4] has as its target recombinant MUC5B N terminus D1-D2-D′-D3 (NT5B), from 293-EBNA cells (human) (UniProt Q9HC84). As to the kind of experiment: AUC; sedimentation velocity, 35,000 rpm, 20 °C; NT5B in 5 mM EGTA at pH 7.4 or pH 6, or 5 mM CaCl2 at pH 7.4.
Data set [5] has the same target. As to the kind of experiment: SDS-PAGE, reduced and nonreduced; purified recombinant proteins from 293-EBNA conditioned medium; shows disulfide-linked dimers.
Data set [6] has the same target. As to the kind of experiment: SEC-MALLS; Superose 6 10/300, 25 mM Hepes, 150 mM NaCl, with 5 mM CaCl2 or 5 mM EGTA at pH 7.4 or pH 6, room temperature, after overnight incubation at 4 °C.
For data set [7], the target named is recombinant MUC5B N terminus D1-D2-D′-D3 (NT5B), from A549 cells (human) (UniProt Q9HC84). As to the kind of experiment: SDS-PAGE (reduced and nonreduced) and Western blot with anti-His antibody; conditioned medium of transiently transfected A549 cells.
Data set [8] deals with the molecule itself. Briefly: SDS-PAGE, reduced and nonreduced; purified recombinant proteins from 293-EBNA conditioned medium; shows disulfide-linked dimers.

For the molecule “disulfide-linked NT5B dimer (from UniProt Q9HC84 26-1304) (complex)”, the higher order multimeric species, percent of total in data set [1] is 44 % of total. Moreover, in data set [2], the multimeric fraction (peak III), percent of total was 29 % of total. This molecule returned a reduction of protein recovered in the dimer peak (5 mM CaCl2 pH 6 against 5 mM EGTA pH 6) in data set [3] of 15%.

As to “recombinant MUC5B N terminus D1-D2-D′-D3 (NT5B), from 293-EBNA cells (from UniProt Q9HC84 26-1304) (domain or fragment)”, the stoichiometry N in data set [4], in data set [5] and in data set [6] was 2 in each case.

“recombinant MUC5B N terminus D1-D2-D′-D3 (NT5B), from A549 cells (from UniProt Q9HC84 26-1304) (domain or fragment)”: in data set [7], the stoichiometry N was determined as 2.

B1: recombinant MUC5B D3 domain (domain or fragment, human, UniProt Q9HC84 894-1304, looked up)
chain: TCVAYGDGHFITFDGDRYSFEGSCEYILAQDYCGDNTTHGTFRIVTENIPCGTTGTTCSKAIKLFVESYELILQEGTFKAVARGPGGDPPYKIRYMGIFLVIETHGMAVSWDRKTSVFIRLHQDYKGRVCGLCGNFDDNAINDFATRSRSVVGDALEFGNSWKLSPSCPDALAPKDPCTANPFRKSWAQKQCSILHGPTFAACRSQVDSTKYYEACVNDACACDSGGDCECFCTAVAAYAQACHDAGLCVSWRTPDTCPLFCDFYNPHGGCEWHYQPCGAPCLKTCRNPSGHCLVDLPGLEGCYPKCPPSQPFFNEDQMKCVAQCGCYDKDGNYYDVGARVPTAENCQSCNCTPSGIQCAHSLEACTCTYEDRTYSYQDVIYNTTDGLGACLIAICGSNGTIIRKAVACPG
notes: MUC5B, human, D3 domain, residues 894-1304; also called D3 protein
Take B1: the “stoichiometry N” value in data set [8] was found to be 2.

B2: recombinant MUC5B D2-D′-D3 domains (domain or fragment, human, UniProt Q9HC84 425-1304, looked up)
chain: CSVQGGAHISTYDEKLYDLHGDCSYVLSKKCADSSFTVLAELRKCGLTDNENCLKAVTLSLDGGDTAIRVQADGGVFLNSIYTQLPLSAANITLFTPSSFFIVVQTGLGLQLLVQLVPLMQVFVRLDPAHQGQMCGLCGNFNQNQADDFTALSGVVEATGAAFANTWKAQAACANARNSFEDPCSLSVENENYARHWCSRLTDPNSAFSRCHSIINPKPFHSNCMFDTCNCERSEDCLCAALSSYVHACAAKGVQLSDWRDGVCTKYMQNCPKSQRYAYVVDACQPTCRGLSEADVTCSVSFVPVDGCTCPAGTFLNDAGACVPAQECPCYAHGTVLAPGEVVHDEGAVCSCTGGKLSCLGASLQKSTGCAAPMVYLDCSNSSAGTPGAECLRSCHTLDVGCFSTHCVSGCVCPPGLVSDGSGGCIAEEDCPCVHNEATYKPGETIRVDCNTCTCRNRRWECSHRLCLGTCVAYGDGHFITFDGDRYSFEGSCEYILAQDYCGDNTTHGTFRIVTENIPCGTTGTTCSKAIKLFVESYELILQEGTFKAVARGPGGDPPYKIRYMGIFLVIETHGMAVSWDRKTSVFIRLHQDYKGRVCGLCGNFDDNAINDFATRSRSVVGDALEFGNSWKLSPSCPDALAPKDPCTANPFRKSWAQKQCSILHGPTFAACRSQVDSTKYYEACVNDACACDSGGDCECFCTAVAAYAQACHDAGLCVSWRTPDTCPLFCDFYNPHGGCEWHYQPCGAPCLKTCRNPSGHCLVDLPGLEGCYPKCPPSQPFFNEDQMKCVAQCGCYDKDGNYYDVGARVPTAENCQSCNCTPSGIQCAHSLEACTCTYEDRTYSYQDVIYNTTDGLGACLIAICGSNGTIIRKAVACPG
notes: MUC5B, human, D2-D′-D3 domains, residues 425-1304
As to B2, the “stoichiometry N” value in data set [8] turned out to be 2.
